The text below walks through data of patent publication US20210324069A1 (PROGASTRINE ET CANCERS S R L, published 2021).

B1: mAb4 (antibody, V domains shown)
VH: QVQLQQSGAELMKPGASVKISCKATGYTFSSSWIEWLKQRPGHGLEWIGEFLPGSGSTDYNEKFKGKATFTADTSSDTAYMLLSSLTSEDSAVYYCATDGNYDWFAYWGQGTLVTVSA
VL: DLVMTQTPLSLPVSLGDQASISCRSSQSLVHSSGVTYLHWYLQKPGQSPKLLIYKVSNRFSGVPDRFSGSGSGTDFTLKISRVEAEDLGVYFCSQSTHVPPTFGSGTKLEIK
notes: Murine monoclonal antibody from a hybridoma; also called hybridoma 20D2C3G2
B2: mAb3 (antibody, V domains shown)
VH: EVQLQQSGTVLARPGASVKMSCKASGYIFTSYWVHWVKQRPGQGLEWIGGFYPGNSDSRYNQKFKGKATLTAVTSASTAYMDLSSLTNEDSAVYFCTRRDSPQYWGQGTTLTVSS
VL: DVLMTQTPLSLPVSLGDQASISCRSSQSIVHSNGNTYLEWYLQKPGQSPKLLIYKVSNRFSGVPDRFSGSGSGTDFTLKISRLEAEDLGVYYCFQGSHVPFTFGGGTKLEIK
notes: Murine monoclonal antibody from a hybridoma; also called hybridoma 6B5B11C10
B3: mAb13 (antibody, V domains shown)
VH: EVQLVESGGGLVQPGGSLKLSCAASGFIFSSYGMSWVRQSPDRRLELVASINTFGDRTYYPDSVKGRFTISRDNAKNTLYLQMTSLKSEDTAIYYCARGTGTYWGQGTTLTVSS
VL: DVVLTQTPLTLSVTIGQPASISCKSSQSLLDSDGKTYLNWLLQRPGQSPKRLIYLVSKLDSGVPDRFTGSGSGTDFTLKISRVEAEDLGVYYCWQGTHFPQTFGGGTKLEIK
notes: Murine monoclonal antibody from a hybridoma; also called hybridoma 2C6C3C7
B4: mAb16 (antibody, V domains shown)
VH: QVQLQQSGAELVKPGASVKLSCKASGYTFTSYYMYWVKQRPGQGLEWIGEINPSNGGTNFNEKFKSKATLTVDKSSSTAYMQLSSLTSEDSAVYYCTRGGYYPFDYWGQGTTLTVSS
VL: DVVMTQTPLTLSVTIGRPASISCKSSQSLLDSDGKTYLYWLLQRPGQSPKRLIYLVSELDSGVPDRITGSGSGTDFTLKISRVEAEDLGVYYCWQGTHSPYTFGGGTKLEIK
notes: Murine monoclonal antibody from a hybridoma; also called hybridoma 1E9D9B6
B5: mAb19 (antibody, V domains shown)
VH: DVQLQESGPGLVKPSQSLSLTCTVTGYSITSDYAWNWIRQFPGNKLEWMGYISFSGYTSYNPSLKSRISVTRDTSRNQFFLQLTSVTTEDTATYYCAREVNYGDSYHFDYWGQGTIVTVSS
VL: QLALTQSSSASFSLGASAKLTCTLSSQHRTYTIEWYQQQSLKPPKYVMEVKKDGSHSTGHGIPDRFSGSSSGADRYLSISNIQPEDEAIYICGVGDAIKGQSVFVFGGGTKVTVL
notes: Murine monoclonal antibody from a hybridoma; also called hybridoma 1B3B4F11

The experiment concerns the target T1, human progastrin (human).
T1 construct: 80-residue progastrin; also called hPG; PG
T1 chain: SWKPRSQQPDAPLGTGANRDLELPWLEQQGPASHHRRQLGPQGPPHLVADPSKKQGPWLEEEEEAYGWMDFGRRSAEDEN
Briefly: epitope mapping (no details given).
With B1, the binding result is “binds”.
For B2 the value was “binds”; for B3, “binds”; for B4, “binds”.
Take B5: the binding result is given as “binds”.
